{"source": "patent US11905559B2", "about": "“Materials and methods for controlling gene expression” (priority 2016, dated 2024)", "key": {"[1]": {"experiment": "Constant-force optical tweezers folding assay of the wild-type aptamer in 2,6-diaminopurine (DAP)", "type": "physicochemical", "conditions": "3 mM Mg^2+; for Folding rate kf / Transition distance ΔX / Unfolding rate ku / ΔG (0): 250 uM DAP; for ΔG (0): zero force", "text": "Guanine binds to the aptamer via nucleobases U^22, U^47, U^51 and C^74 in the junction J1/2, J2/3 and J3/1. The hydrogen bonding between C^74 with the functional group in the 6th position of the purine is deterministic for ligand recognition. The purine analog 2,6-diaminopurine (DAP) differs from guanine in having an amino group in the 6th position (FIG. 13), and thus disrupts the hydrogen bonding pattern. […] In order to investigate if the loop-loop dynamics in the guanine-riboswitch are affected with a change in the ligand, mechanical assays in the presence of DAP were performed. […] Furthermore, a near similar L2-L3 kinetics highlighted that the tertiary and the secondary interactions remained unaffected by replacing guanine with DAP (Table 1).\nIn a constant-force (CF) experiment, the RNA is held at a preset force through feedback control. The preset force typically fluctuated around the mean with a standard deviation ±0.15 pN. In this mode, data is recorded from 4-40 kHz to capture the fast intermediates. The plots are shown as extension vs. time (as in FIG. 6A). In force-jump (FJ) assay, the force is suddenly jumped from one force to another, and then held constant thereafter, as shown in FIGS. 23A-B.\nAll FR, CF and FJ experiments were carried out at an ambient temperature, 25±0.5° C. The buffer in the microfluidics contained 10 mM Tris-HCl, pH 7.5 at 25° C., 250 mM NaCl, 3 mM MgCl2, and purine concentrations as indicated in wild-type aptamer. Unless stated otherwise, Mg^2+ concentration in the buffer was maintained at 3 mM in all experiments. The buffer in mutant m1 contained 5 mm Mg^2+ and 1 μM G, and in m3 contained 5 mM Mg^2+ and 200 nM Guanine. For the remaining m2, m4, m5 and m6 mutants, the buffer in single-molecule experiments was supplemented only with 3 mM Mg^2+ and 200 nM Guanine."}, "[2]": {"experiment": "Force-ramp mechanical unfolding-refolding of the guanine-aptamer (optical tweezers)", "type": "physicochemical", "conditions": "for Unfolding force of the aptamer / Observed nucleotides / Observed ΔXobs: +1 μM guanine, force-ramp; for Observed nucleotides / Observed ΔXobs: complete aptamer (69 nt), 18 pN", "protocol": "A 69 nucleotide (nt) guanine-sensing aptamer (FIGS. 3 and 4A-B) from xpt-pbuX operon in B. subtilis was used for mechanical unfolding-refolding studies. In the experimental set up shown in FIGS. 2A-E, a single molecule of the guanine-aptamer RNA was clamped between two polystyrene beads through RNA-DNA handles. […] Considering the inter-nucleotide distance as 0.448 nm at 18 pN, then using a serial worm-like chain equation\nThe forces on the bead were recorded at an acquisition rate of 44 kHz. Data was collected from the stereo phone jacks on the ADC boards of the Tweezers instrument and sent to the host computer audio input for analysis by SignalScope program (Faber Acoustical, LLC). As shown in the plot, power spectral density is fitted with the Lorentzian fit to yield the corner frequency (fc) that was used to calculate the trap stiffness. This setup was used to perform three different mechanical reactions: force-ramp (FR), constant-force (CF) and force-jump (FJ) under a controlled force. In the force-ramp (FR) experiment, the trap was moved at 200 nm/s, which corresponded to a loading rate 7-8 pN/s. […] The force-ramp data is plotted as force vs. extension curves (FEC).\nIn the force-ramp experiment, the trap was moved away (pull cycle) from the micropipette at 200 nm/sec, which corresponded to a loading rate of 7-8 pN/sec. This movement of the trap exerted a tension at the ends of the tethered RNA aptamer. […] In the constant-force (CF) experiment, the RNA was held at a preset force (FIG. 6A). The loading rate in CF experiments was zero. The preset force typically fluctuated around the mean with standard deviation ±0.15 pN. The force-ramp and the CF experiments were carried out at an ambient temperature 25±0.5° C. in buffer containing 10 mM Tris-HCl, pH 7.5 at 250 mM NaCl, 3 mM MgCl2 unless mentioned otherwise."}, "[3]": {"conditions": "transition BA (P1 folding), F 8.5 pN"}, "[4]": {"conditions": "transition C′B (L2-L3 folding), F 8.5 pN"}, "[5]": {"conditions": "transition DC (P3 folding), F 12.0 pN"}, "[6]": {"conditions": "transition ED (P2 folding), F 13.5 pN"}, "[7]": {"conditions": "200 nM guanine, sequential unfolding"}}, "data": [{"molecule": "wt: 69-nucleotide full-length wild-type guanine sensing aptamer RNA sequence from xpt-pbuX operon in B. subtilis (SEQ ID NO: 1) (nucleic acid, RNA, backbone and methylation of C not given here) CACUCAUAUAAUCGCGUGGAUAUGGCACGCAAGUUUCUACCGGGCACCGUAAAUGUCCGACUAUGGGUG", "values": [{"measurement": "Equilibrium force F^eq", "setting": "[1]; transition BA (P1 folding), 250 uM DAP (rates at 8.5 pN)", "value": "9.8 ± 0.1", "unit": "pN"}, {"measurement": "Folding rate kf", "setting": "[1]; [3]", "value": "0.29 ± 0.02", "unit": "s⁻¹"}, {"measurement": "Transition distance ΔX", "setting": "[1]; [3]", "value": "9.7 ± 0.2", "unit": "nm"}, {"measurement": "Unfolding rate ku", "setting": "[1]; [3]", "value": "0.023 ± 0.004", "unit": "s⁻¹"}, {"measurement": "ΔG (0)", "setting": "[1]; transition BA (P1 folding), from data at 8.5 pN", "value": "−16.6 ± 0.5", "unit": "kBT"}, {"measurement": "Equilibrium force F^eq", "setting": "[1]; transition C′B (L2-L3 folding), 250 uM DAP (rates at 8.5 pN)", "value": "8.7 ± 0.2", "unit": "pN"}, {"measurement": "Folding rate kf", "setting": "[1]; [4]", "value": "0.96 ± 0.08", "unit": "s⁻¹"}, {"measurement": "Transition distance ΔX", "setting": "[1]; [4]", "value": "3.6 ± 0.2", "unit": "nm"}, {"measurement": "Unfolding rate ku", "setting": "[1]; [4]", "value": "0.8 ± 0.06", "unit": "s⁻¹"}, {"measurement": "ΔG (0)", "setting": "[1]; transition C′B (L2-L3 folding), from data at 8.5 pN", "value": "−7.6 ± 0.4", "unit": "kBT"}, {"measurement": "Equilibrium force F^eq", "setting": "[1]; transition DC (P3 folding), 250 uM DAP (rates at 12.0 pN)", "value": "12.3 ± 0.02", "unit": "pN"}, {"measurement": "Folding rate kf", "setting": "[1]; [5]", "value": "22.0 ± 0.6", "unit": "s⁻¹"}, {"measurement": "Transition distance ΔX", "setting": "[1]; [5]", "value": "7.5 ± 0.3", "unit": "nm"}, {"measurement": "Unfolding rate ku", "setting": "[1]; [5]", "value": "14.3 ± 0.4", "unit": "s⁻¹"}, {"measurement": "ΔG (0)", "setting": "[1]; transition DC (P3 folding), from data at 12.0 pN", "value": "−15.5 ± 0.9", "unit": "kBT"}, {"measurement": "Equilibrium force F^eq", "setting": "[1]; transition ED (P2 folding), 250 uM DAP (rates at 13.5 pN)", "value": "13.6 ± 0.02", "unit": "pN"}, {"measurement": "Folding rate kf", "setting": "[1]; [6]", "value": "14.7 ± 0.4", "unit": "s⁻¹"}, {"measurement": "Transition distance ΔX", "setting": "[1]; [6]", "value": "7.0 ± 0.2", "unit": "nm"}, {"measurement": "Unfolding rate ku", "setting": "[1]; [6]", "value": "13.4 ± 0.4", "unit": "s⁻¹"}, {"measurement": "ΔG (0)", "setting": "[1]; transition ED (P2 folding), from data at 13.5 pN", "value": "−16.3 ± 0.7", "unit": "kBT"}, {"measurement": "Force at which P1 melted", "setting": "[2]; [7]", "value": "5-10 pN"}, {"measurement": "Force at which P2, P3 unfolded", "setting": "[2]; [7]", "value": "12-15 pN"}, {"measurement": "Unfolding force of the aptamer", "setting": "[2]; listed as guanine-aptamer", "value": "18.6±1.1", "unit": "pN"}, {"measurement": "Unfolding force of the aptamer", "setting": "[2]; listed as isolated aptamer", "value": "~18.0", "unit": "pN"}, {"measurement": "Observed nucleotides", "setting": "[2]", "value": "67.1 ± 2"}, {"measurement": "Observed ΔXobs", "setting": "[2]", "value": "30.2 ± 1.0", "unit": "nm"}, {"measurement": "Observed nucleotides", "setting": "[2]; listed as 69 nt-aptamer", "value": "67±2"}, {"measurement": "Observed ΔXobs", "setting": "[2]; listed as guanine-aptamer", "value": "30.2±1", "unit": "nm"}, {"measurement": "Observed ΔXobs", "setting": "[2]; listed as isolated aptamer", "value": "~30", "unit": "nm"}]}]}
